According to US20090023646A1, “GHRH analogues” (Centre Hospitalier de L'Universite de Montreal (CHUM), priority 2002, published 2009):
Read-outs that look alike come from different tables or passages of the source. Square brackets hold non-standard residues; d marks the D form. Ends that are not written are not given here.

T1: human GHRH receptor (human, UniProt Q02643 23-423)
T1 construct: whole, on cells; Assayed in BHK cell membrane preparations (25 ug protein per tube), not on intact cells; also called hGHRH-R; hGHRH receptor
T1 sequence (looked up): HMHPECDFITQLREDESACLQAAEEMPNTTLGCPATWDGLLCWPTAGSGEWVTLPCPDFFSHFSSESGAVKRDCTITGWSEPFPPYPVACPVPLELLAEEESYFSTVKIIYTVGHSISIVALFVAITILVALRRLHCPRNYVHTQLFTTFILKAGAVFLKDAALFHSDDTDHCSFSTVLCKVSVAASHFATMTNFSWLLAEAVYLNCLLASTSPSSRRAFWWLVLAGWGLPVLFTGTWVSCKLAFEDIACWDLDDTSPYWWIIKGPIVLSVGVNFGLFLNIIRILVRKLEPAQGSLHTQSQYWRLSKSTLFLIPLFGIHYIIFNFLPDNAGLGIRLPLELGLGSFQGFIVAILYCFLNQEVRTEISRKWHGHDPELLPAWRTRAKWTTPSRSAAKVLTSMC

T2: rat GHRH receptor (rat, UniProt Q02644 23-464)
T2 construct: whole, on cells; Native tissue membrane preparation; In the in vivo study it is the receptor on rat pituitary somatotrophs; also called rat pituitary GHRH receptor
T2 sequence (looked up): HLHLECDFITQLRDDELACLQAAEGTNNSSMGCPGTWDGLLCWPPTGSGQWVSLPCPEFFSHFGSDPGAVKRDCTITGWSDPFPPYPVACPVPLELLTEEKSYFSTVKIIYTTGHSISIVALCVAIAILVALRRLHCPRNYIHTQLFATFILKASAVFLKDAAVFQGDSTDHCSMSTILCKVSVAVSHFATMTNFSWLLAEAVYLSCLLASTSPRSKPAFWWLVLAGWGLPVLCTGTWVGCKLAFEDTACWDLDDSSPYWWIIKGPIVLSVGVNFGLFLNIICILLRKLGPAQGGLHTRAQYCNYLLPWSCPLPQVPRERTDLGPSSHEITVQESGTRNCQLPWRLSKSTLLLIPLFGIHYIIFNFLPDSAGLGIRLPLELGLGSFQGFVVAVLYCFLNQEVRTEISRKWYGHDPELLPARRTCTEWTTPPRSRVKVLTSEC


Assays:
human GHRH receptor [1] = biological target: T1, human GHRH receptor; test: competition with [125I-Tyr10]hGHRH(1-44)NH2, BHK cell membrane preparations expressing the human GHRH receptor
Experimental: (§1) Incubation was carried out at equilibrium (23° C., 60 min) and stopped by centrifugation (12,000 g, 5 min, at 4° C.). The radioactivity content in pellets was determined by gamma counting. […] The Ligand computerized program was used to analyze competition curves of GHRH analogues reported in Tables 2 and 3 and to determine their IC₅₀ (Gaudreau P. et al. (1992) J Med Chem, 35: 1864-1869).
(§2) IC₅₀ is the concentration of peptide inhibiting 50% of ¹²⁵I-GHRH specific binding as determined by the LIGAND program for analysis of competition curves.

rat GHRH receptor = biological target: T2, rat GHRH receptor; test: competition with [125I-Tyr10]hGHRH(1-44)-NH2, rat anterior pituitary membrane preparations
human GHRH receptor [2] = biological target: T1, human GHRH receptor; test: competition with [125I-Tyr10]hGHRH(1-44)NH2, BHK cell membrane preparations expressing the human GHRH receptor; remark: listed apart in the source
Experimental: as §1, §2

human GHRH receptor [3] = biological target: T1, human GHRH receptor; test: competition with [125I-Tyr10]hGHRH(1-44)NH2, BHK cell membrane preparations expressing the human GHRH receptor (reference peptide; its IC50 is not given)
Experimental: as §1, §2

| Binder | IC50 (human GHRH receptor [1]) [nM] | relative binding affinity (R1) in comparison with hGHRH(1-29)NH2 (human GHRH receptor [1]) | relative binding affinity in rat anterior pituitary (compared to hGHRH(1-29)-NH2) (rat GHRH receptor) | IC50 (human GHRH receptor [2]) [nM] | binding result (human GHRH receptor [3]) |
| --- | --- | --- | --- | --- | --- |
| Y[dA]DAIFTNS[dY]RKVL[dA]QLSARKKLQDIMSR-NH2 (also: acetate salt, also called GHRH analogue #5; human GHRH analogue #5) [[D-Ala2, D-Tyr10, D-Ala15, Lys22] hGHRH(1-29)-NH2] | 0.006 | 939 ratio IC50 of hGHRH(1-29)-NH2 / IC50 analogue | 1.04 fold against hGHRH(1-29)-NH2 | 0.0012 | – |
| Y[dA]DAIFTAS[dY]RKVLAQLSAR[dK]KLQDIMSR-NH2 (N-terminus assumed; SMILES CC[C@H](C)[C@H](NC(=O)[C@H](C)NC(=O)[C@H](CC(=O)O)NC(=O)[C@@H](C)NC(=O)[C@@H](N)Cc1ccc(O)cc1)C(=O)N[C@@H](Cc1ccccc1)C(=O)N[C@H](C(=O)N[C@@H](C)C(=O)N[C@@H](CO)C(=O)N[C@H](Cc1ccc(O)cc1)C(=O)N[C@@H](CCCNC(=N)N)C(=O)N[C@@H](CCCCN)C(=O)N[C@H](C(=O)N[C@@H](CC(C)C)C(=O)N[C@@H](C)C(=O)N[C@@H](CCC(N)=O)C(=O)N[C@@H](CC(C)C)C(=O)N[C@@H](CO)C(=O)N[C@@H](C)C(=O)N[C@@H](CCCNC(=N)N)C(=O)N[C@H](CCCCN)C(=O)N[C@@H](CCCCN)C(=O)N[C@@H](CC(C)C)C(=O)N[C@@H](CCC(N)=O)C(=O)N[C@@H](CC(=O)O)C(=O)N[C@H](C(=O)N[C@@H](CCSC)C(=O)N[C@@H](CO)C(=O)N[C@@H](CCCNC(=N)N)C(N)=O)[C@@H](C)CC)C(C)C)[C@@H](C)O, Synthetic 29-residue amide; also called GHRH analogue #4; No. 4) [[D-Ala2, Ala8, D-Tyr10, Ala15, D-Lys21, Lys22] hGHRH(1-29)-NH2] | 37 | 0.05 ratio IC50 of hGHRH(1-29)-NH2 / IC50 analogue | 5 fold against hGHRH(1-29)-NH2 | – | – |
| YADAIFTNSYRKVLGQLSARKLLQDIMSR-NH2 (also called hGHRH(1-29)NH2; hGHRH(1-29)-NH2) [human GHRH(1-29)NH2] | – | – | – | – | binds |
| Y[dA]DAIFTASYRKVLAQLSARKKLQDIMSR-NH2 (N-terminus assumed; SMILES CC[C@H](C)[C@H](NC(=O)[C@H](C)NC(=O)[C@H](CC(=O)O)NC(=O)[C@@H](C)NC(=O)[C@@H](N)Cc1ccc(O)cc1)C(=O)N[C@@H](Cc1ccccc1)C(=O)N[C@H](C(=O)N[C@@H](C)C(=O)N[C@@H](CO)C(=O)N[C@@H](Cc1ccc(O)cc1)C(=O)N[C@@H](CCCNC(=N)N)C(=O)N[C@@H](CCCCN)C(=O)N[C@H](C(=O)N[C@@H](CC(C)C)C(=O)N[C@@H](C)C(=O)N[C@@H](CCC(N)=O)C(=O)N[C@@H](CC(C)C)C(=O)N[C@@H](CO)C(=O)N[C@@H](C)C(=O)N[C@@H](CCCNC(=N)N)C(=O)N[C@@H](CCCCN)C(=O)N[C@@H](CCCCN)C(=O)N[C@@H](CC(C)C)C(=O)N[C@@H](CCC(N)=O)C(=O)N[C@@H](CC(=O)O)C(=O)N[C@H](C(=O)N[C@@H](CCSC)C(=O)N[C@@H](CO)C(=O)N[C@@H](CCCNC(=N)N)C(N)=O)[C@@H](C)CC)C(C)C)[C@@H](C)O, Synthetic 29-residue amide; also called GHRH analogue #1; No. 1) [[D-Ala2, Ala8, Ala15, Lys22] hGHRH(1-29)-NH2] | 0.033 | 499 ratio IC50 of hGHRH(1-29)-NH2 / IC50 analogue | 13.3 fold against hGHRH(1-29)-NH2 | – | – |
| YADAIFTAAYRKVLAQLSARKALQDIMSR-NH2 (Synthetic 29-residue amide; also called GHRH analogue #2; No. 2) [[Ala8, Ala9, Ala15, Ala22] hGHRH(1-29)-NH2] | 0.77 | 3.7 ratio IC50 of hGHRH(1-29)-NH2 / IC50 analogue | 7.74 fold against hGHRH(1-29)-NH2 | – | – |
| Y[dA]DAIFTNS[dY]RKVLGQLSARKKLQDIMSR-NH2 (N-terminus assumed; SMILES CC[C@H](C)[C@H](NC(=O)[C@H](C)NC(=O)[C@H](CC(=O)O)NC(=O)[C@@H](C)NC(=O)[C@@H](N)Cc1ccc(O)cc1)C(=O)N[C@@H](Cc1ccccc1)C(=O)N[C@H](C(=O)N[C@@H](CC(N)=O)C(=O)N[C@@H](CO)C(=O)N[C@H](Cc1ccc(O)cc1)C(=O)N[C@@H](CCCNC(=N)N)C(=O)N[C@@H](CCCCN)C(=O)N[C@H](C(=O)N[C@@H](CC(C)C)C(=O)NCC(=O)N[C@@H](CCC(N)=O)C(=O)N[C@@H](CC(C)C)C(=O)N[C@@H](CO)C(=O)N[C@@H](C)C(=O)N[C@@H](CCCNC(=N)N)C(=O)N[C@@H](CCCCN)C(=O)N[C@@H](CCCCN)C(=O)N[C@@H](CC(C)C)C(=O)N[C@@H](CCC(N)=O)C(=O)N[C@@H](CC(=O)O)C(=O)N[C@H](C(=O)N[C@@H](CCSC)C(=O)N[C@@H](CO)C(=O)N[C@@H](CCCNC(=N)N)C(N)=O)[C@@H](C)CC)C(C)C)[C@@H](C)O, Synthetic 29-residue amide; also called GHRH analogue #3; No. 3) [[D-Ala2, D-Tyr10, Lys22] hGHRH(1-29)-NH2] | 0.0063 | 239 ratio IC50 of hGHRH(1-29)-NH2 / IC50 analogue | 4.9 fold against hGHRH(1-29)-NH2 | – | – |
